Biological target: endogenous MDM2 of SH-SY5Y cells (human (endogenous in SH-SY5Y)) (UniProt Q00987)
Assay: AlphaScreen or HTRF; AlphaLISA of extracts of SH-SY5Y cells (MG132), endogenous proteins; D1V2Z-CaptSure acceptor beads and biotinylated HT7 on donor beads; background from Tau-KO SH-SY5Y cells

endogenous MDM2 of SH-SY5Y cells (human (endogenous in SH-SY5Y)), sequence (Q00987 whole entry): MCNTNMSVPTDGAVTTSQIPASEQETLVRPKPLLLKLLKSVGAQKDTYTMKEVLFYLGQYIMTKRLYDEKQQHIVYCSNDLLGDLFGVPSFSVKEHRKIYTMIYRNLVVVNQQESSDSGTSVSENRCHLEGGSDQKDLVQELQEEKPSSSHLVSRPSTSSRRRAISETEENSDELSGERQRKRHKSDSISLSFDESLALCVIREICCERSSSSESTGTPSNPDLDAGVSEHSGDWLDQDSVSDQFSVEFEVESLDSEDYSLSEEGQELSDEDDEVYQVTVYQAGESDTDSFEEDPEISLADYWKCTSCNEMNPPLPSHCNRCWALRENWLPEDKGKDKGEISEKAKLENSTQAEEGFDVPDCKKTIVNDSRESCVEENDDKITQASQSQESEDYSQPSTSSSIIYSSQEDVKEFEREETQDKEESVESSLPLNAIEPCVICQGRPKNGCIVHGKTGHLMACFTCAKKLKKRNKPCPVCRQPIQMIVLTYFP

- AlphaLISA signal, fold over background of Tau-KO SH-SY5Y cells: 2.7 fold
Substance: endogenous Tau of SH-SY5Y cells (from UniProt P10636 1-758) (natural protein)

— PMC10290082
